Measured values published in US20030171559A1 (Amgen, published 2003).
Substitutions are numbered along the chain they refer to.

T1: G-CSF receptor (natural G-CSF receptor, found on hematopoietic cells) (mouse (bone marrow cells of Balb C …, UniProt P40223 26-837))
T1 sequence (looked up): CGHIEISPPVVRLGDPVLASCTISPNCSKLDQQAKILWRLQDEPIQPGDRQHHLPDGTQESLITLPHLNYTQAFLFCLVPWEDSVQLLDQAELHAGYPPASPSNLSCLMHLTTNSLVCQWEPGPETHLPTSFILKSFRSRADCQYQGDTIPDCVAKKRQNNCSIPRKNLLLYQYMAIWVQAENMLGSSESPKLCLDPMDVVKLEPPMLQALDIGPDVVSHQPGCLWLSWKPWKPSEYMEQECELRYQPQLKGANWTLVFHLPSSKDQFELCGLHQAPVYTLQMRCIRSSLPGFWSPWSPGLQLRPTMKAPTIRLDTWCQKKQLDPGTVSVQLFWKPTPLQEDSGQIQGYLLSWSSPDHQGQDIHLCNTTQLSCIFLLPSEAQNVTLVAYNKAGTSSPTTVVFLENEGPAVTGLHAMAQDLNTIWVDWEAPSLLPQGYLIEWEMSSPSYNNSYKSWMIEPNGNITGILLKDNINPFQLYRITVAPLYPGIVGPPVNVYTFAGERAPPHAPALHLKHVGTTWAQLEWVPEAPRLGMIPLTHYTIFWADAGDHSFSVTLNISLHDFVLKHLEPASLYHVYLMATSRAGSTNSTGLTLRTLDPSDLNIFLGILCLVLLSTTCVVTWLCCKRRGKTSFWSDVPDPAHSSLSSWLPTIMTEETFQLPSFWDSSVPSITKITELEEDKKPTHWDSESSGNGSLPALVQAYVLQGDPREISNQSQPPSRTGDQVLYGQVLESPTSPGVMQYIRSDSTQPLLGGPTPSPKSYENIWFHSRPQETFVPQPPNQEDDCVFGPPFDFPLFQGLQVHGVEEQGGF

B1: G-CSF analog Glu47->Ala47 (ligand)
chain: MTPLGPASSLPQSFLLKCLEQVRKIQGDGAALQEKLCATYKLCHPEALVLLGHSLGIPWAPLSSCPSQALQLAGCLSQLHSGLFLYQGLLQALEGISPELGPTLDTLQLDVADFATTIWQQMEELGMAPALQPTQGAMPAFASAFQRRAGGVLVASHLQSFLEVSYRVLRHLAQP
B2: G-CSF analog Arg23->Ala23 (ligand)
chain: B1 chain with R23A, A47E
B3: G-CSF analog Lys24->Ala24 (ligand)
chain: B1 chain with K24A, A47E

The binders below were run against T1, G-CSF receptor (natural G-CSF receptor, …) (assay: cell-based or functional assay).

% Normal G-CSF Activity (3H-thymidine uptake, mouse bone marrow cells) | Binder
0% | B1
31% | B2
0% | B3
